Measurements as given in the supplement of paper PMC9170038.

System: MS2 coat protein
Test: apparent KD of MS2 coat protein; designed switch direction (-1 OFF switch, 1 ON switch): -1; higher = weaker reporter binding
Method in brief: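 Designed RNA switches sharing common flanks were transcribed on Illumina chips by stalled E. coli RNA polymerase. They were titrated with SNAP-549-labelled MS2 coat protein, from 0.7 or 1.5 nM doubling to 3 µM, in Tris-HCl pH 7.5 buffer with KCl, MgCl2, BSA, DTT, tRNA and Tween-20. Titrations ran without input, with 200 uM small-molecule ligand, or with an oligonucleotide input. The apparent KD of each design is the median over its clusters, after curve-fitting of normalised cluster fluorescence.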

[1] = Eterna round: R95, input ligand: microRNA oligo, concentration not stated
[2] = input ligand: microRNA oligo, concentration not stated
[3] = Eterna round: R95, input ligand: FMN 200 uM
[4] = Eterna round: R95, input ligand: none

UUUUACCUAGGAUAUACAUUUUUUUUAUUAUUUUCAUUAUAACAUGAGGAUCACCCAUGUAGAAGGAGGAUUUU [My Design] (puzzle: Exclusion 2)
apparent KD of MS2 coat protein [1]: 34.7 nM

ACAUGAGGAUCACCCAUGUUAACGAAAAGGCUCAUGUAGAGUGAGGAUAUGUGAGACGAACGAGAACAGAAGGCACAAGACAGG [Deportation 2 - Jieux - Exclusion NG 3] (Eterna round: R96, puzzle: Exclusion NG 3)
apparent KD of MS2 coat protein (input ligand: FMN 200 uM): 24.2 nM
apparent KD of MS2 coat protein [2]: 15.2 nM
apparent KD of MS2 coat protein (input ligand: none): 22.3 nM

GCUAGACAUGUCAGGAUAUGCUGUACCUUGGUACAGCAGAAGGGACAUGAGGAUCACCCAUGUGCCUAUCUAGC [JL-BMX4-4.05] (Eterna round: R97, puzzle: Brourd's mod of Exclusion 4)
apparent KD of MS2 coat protein (input ligand: FMN 200 uM): 308 nM
apparent KD of MS2 coat protein (input ligand: none): 43.6 nM

UGUAGAGUGGUAGGAUAUCCGUCUGUUUCAGUCGGAGAAGGGCCACAGUCACUGGGUCCUAAUAUCAUGGAGACCUGAUCUACU [pwkr exNG1 F6.14] (Eterna round: R96, puzzle: Exclusion NG 1)
apparent KD of MS2 coat protein (input ligand: FMN 200 uM): 599 nM
apparent KD of MS2 coat protein [2]: 288 nM
apparent KD of MS2 coat protein (input ligand: none): 383 nM

UUAAUACAUGUAGGAUAUGCGUGGCGAAGCUAUGCAGAAGGACAUGAGGAUCACCCAUGUUCUUGCGUCCGCGUACGGAUGCAA [JL Eng1 1.21 mod 4] (Eterna round: R96, puzzle: Exclusion NG 1)
apparent KD of MS2 coat protein (input ligand: FMN 200 uM): 29.4 nM
apparent KD of MS2 coat protein [2]: 10.2 nM
apparent KD of MS2 coat protein (input ligand: none): 15.2 nM

CCGGCUUACUAGGAUAUCAGAGUCGAAAGACUCUGAGAAGGAGUAACAUGAGGAUCACCCAUGUGUCCUACCGG [Mod of Eli 9 - Jieux - Exclusion 6] (Eterna round: R97, puzzle: Exclusion 6)
apparent KD of MS2 coat protein (input ligand: FMN 200 uM): 113 nM
apparent KD of MS2 coat protein (input ligand: none): 29.5 nM

GCAGGAUAAGUGAGGAUAUACCUAUGGAUACAUAGGUAGAAGGCACAUGAGGAUCACCCAUGUUACUCGCCUGC [Fiskers BMX 4 - 75] (puzzle: Brourd's mod of Exclusion 4)
apparent KD of MS2 coat protein [3]: 41.7 nM
apparent KD of MS2 coat protein [1]: 12.9 nM
apparent KD of MS2 coat protein [4]: 10.9 nM

AGUACUAUCACGAAAGUGAUAGUACAAUGAGCUUUUGAAACAUGAGGAUCACCCAUGUCCUCAUAAGCUCGUCUUAU [JL turnoff v2 52] (Eterna round: R96, puzzle: Sensor v2, turn-off variant 2)
apparent KD of MS2 coat protein (input ligand: FMN 200 uM): 17.4 nM
apparent KD of MS2 coat protein [2]: 123 nM
apparent KD of MS2 coat protein (input ligand: none): 18.9 nM

ACCUCACUUGAGGAUCACCCAAGUCAGGAUAUACUCGUUUGCCGCACGACGCGGCAUUGUAGAAGGGACGGGUU [Arveatat] (Eterna round: R97, puzzle: Exclusion 1)
apparent KD of MS2 coat protein (input ligand: FMN 200 uM): 35.1 nM
apparent KD of MS2 coat protein (input ligand: none): 17.9 nM

UAUAUGUGAGGAUAUCAGGUGUGCUAGCGAACUGGUACAUCUGAGAAGGCACAUGAGGAUCACCCAUGUAUCUU [Mat - Exclusion 4 - Mod of JL - D46] (puzzle: Exclusion 4)
apparent KD of MS2 coat protein [1]: 26.3 nM

AUGCUCCGUGUAGGAUAUCGCCGCACCACUCGGCGAGAAGGACAUGAGGAUCACCCAUGUAUGUUAUUAUCACGUGUGGCGCGC [Design 43] (Eterna round: R96, puzzle: Exclusion NG 1)
apparent KD of MS2 coat protein (input ligand: FMN 200 uM): 15.1 nM
apparent KD of MS2 coat protein [2]: 13 nM
apparent KD of MS2 coat protein (input ligand: none): 15.9 nM

AAGUCGACGGUGAGGAUAUUGGUUGAACGACAGAUUAAGAAGGUACAUGAGGAUCACCCAUGUGGGUAACGUUG [Brourd's EX4 #76] (Eterna round: R97, puzzle: Brourd's mod of Exclusion 4)
apparent KD of MS2 coat protein (input ligand: FMN 200 uM): 108 nM
apparent KD of MS2 coat protein (input ligand: none): 86.2 nM

GUCUGAGCAGGAUAUACAUGAGGAUCACCCAUGUUGGUUCAGCGACGAUAGUCGCAAUGUAGAAGGGCUCAGAC [E3/9-D1] (Eterna round: R97, puzzle: Exclusion 3)
apparent KD of MS2 coat protein (input ligand: FMN 200 uM): 73.5 nM
apparent KD of MS2 coat protein (input ligand: none): 258 nM

CAAUGUACCUAGGAUAUAACCUACGACAUUGGGUUAGAAGGAGGAACAUGAGGAUCACCCAUGUGACUUCGCAA [Abiisbe] (puzzle: Exclusion 6)
apparent KD of MS2 coat protein [1]: 9.5 nM

CGUCUGUAAGGAUAUGGUUACAUCGACAUGAGGAUCACCCAUGUGACGUGGGACUAGUGAUUAGAAGGUACGAACG [EX5 #65] (Eterna round: R97, puzzle: Exclusion 5)
apparent KD of MS2 coat protein (input ligand: FMN 200 uM): 55.2 nM
apparent KD of MS2 coat protein (input ligand: none): 59.4 nM

CAGUACAGAGGAUAUACAUGAGGAUCACCCAUGUGUUUCAGCAUCGAAAGAUGCGAAUGUAGAAGGCUGUACUG [jl-ex3-4.26 salish99 mod] (Eterna round: R97, puzzle: Exclusion 3)
apparent KD of MS2 coat protein (input ligand: FMN 200 uM): 313 nM
apparent KD of MS2 coat protein (input ligand: none): 26.5 nM

UACAGUCAUCCUUAUUGUUACAUGAGGAUCACCCAUGUUAGUAUAAUUAAGUUAUGUAAGUUUGUUGUUCGUUUUAU [JR_STOV1_v2_Sub075] (Eterna round: R97, puzzle: Sensor, turn-off variant 1)
apparent KD of MS2 coat protein (input ligand: FMN 200 uM): 81.9 nM
apparent KD of MS2 coat protein (input ligand: none): 84.6 nM

AUAUAACAUGAGGAUCACCCAUGUGAGGAUAUGCGAUAUAUAAUAAUAAUAAUAAUAAGCAGAAGGCACAAAAU [My FIrst Design] (puzzle: Exclusion 1)
apparent KD of MS2 coat protein [3]: 60.2 nM
apparent KD of MS2 coat protein [1]: 78.7 nM
apparent KD of MS2 coat protein [4]: 71.7 nM

UUACGUUUAGAGGAUAUAUUAAGGAAGGUAACGAUAGAAGGCUAGACAUGAGGAUCACCCAUGUAUAUAGGGAU [JR_Ex6_Sub071] (Eterna round: R97, puzzle: Exclusion 6)
apparent KD of MS2 coat protein (input ligand: FMN 200 uM): 141 nM
apparent KD of MS2 coat protein (input ligand: none): 54 nM

AAAACGGCAGGAUAUACAUGAGGAUCACCCAUGUGAAAUAAAAUAAAAUAAAAUAAAAGUAGAAGGGCCAAAAA [Exclusion 3 #3] (puzzle: Exclusion 3)
apparent KD of MS2 coat protein [3]: 40.4 nM
apparent KD of MS2 coat protein [1]: 40.7 nM
apparent KD of MS2 coat protein [4]: 58.6 nM

CACCGUUACAGAGGAUAUCUUACAUGAGGAUCACCCAUGUAAUAAAUGAGAAUUUCGGAUGUAUGAGAGAAGGCUGGAAUCGGC [Ostricism 38 - Jieux - Exclusion NG 2] (Eterna round: R96, puzzle: Exclusion NG 2)
apparent KD of MS2 coat protein [2]: 16.3 nM

AGCUAGAUAGGAUAUGCCCGGGAUAACAUGAGGAUCACCCAUGUGACCGAUUCAUGUCCAGCAGAAGGGUUUGGGA [Mod of ViennaUCT 8 - Jieux - Exclusion 5] (Eterna round: R97, puzzle: Exclusion 5)
apparent KD of MS2 coat protein (input ligand: FMN 200 uM): 17.1 nM
apparent KD of MS2 coat protein (input ligand: none): 16.7 nM

AAAAAGGCAGGAUAUACGAGUCAAAGAAAAGACAAAAGGAGACAUGAGGAUCACCCAUGUAGAAGGGCCAAAAA [Fiskers exclusion D2 62% 5] (Eterna round: R96, puzzle: Exclusion 2)
apparent KD of MS2 coat protein (input ligand: FMN 200 uM): 85.2 nM
apparent KD of MS2 coat protein [2]: 20.6 nM
apparent KD of MS2 coat protein (input ligand: none): 25.3 nM

CCAUCGAGUGUGAGGAUAUGCUGGUCCAUAGAUCAGCAGAAGGCACAUGAGGAUCACCCAUGUGGAGACGGUGG [Mat - Exclusion 4 - JL Mod - D78] (puzzle: Brourd's mod of Exclusion 4)
apparent KD of MS2 coat protein [3]: 418 nM
apparent KD of MS2 coat protein [1]: 34.4 nM
apparent KD of MS2 coat protein [4]: 36.6 nM

GUCCUCAUGACGCCUAAACACAUGAGGAUCACCCAUGUACAGGCUUUUUGUCGUCUUAUAAUAAAACCGAGGAUGCG [Xelaanen] (puzzle: Sensor v3, turn-off variant 1)
apparent KD of MS2 coat protein [3]: 24.4 nM
apparent KD of MS2 coat protein [1]: 319 nM
apparent KD of MS2 coat protein [4]: 29.8 nM

CAUACUCAAGUGAGGAUAUAGUCUCGGAUACGAAACUAGAAGGCACAUGAGGAUCACCCAUGUAGAGAGUAAAG [EX-4 Malc #29] (puzzle: Brourd's mod of Exclusion 4)
apparent KD of MS2 coat protein [3]: 62.7 nM
apparent KD of MS2 coat protein [1]: 18.5 nM
apparent KD of MS2 coat protein [4]: 13.1 nM

CAACGAUGAGGAUAUACAUGAGGAUCACCCAUGUGGUCCAGCAGCCAUUACGGCGAAGGUAGAAGGCGUUAUUA [Eternabot (L2) Solution 54] (Eterna round: R97, puzzle: Exclusion 3)
apparent KD of MS2 coat protein (input ligand: FMN 200 uM): 349 nM
apparent KD of MS2 coat protein (input ligand: none): 386 nM

GAAAACGUAGGAUAUUAAUACUUAUACAUGAGGAUCACCCAUGUUUGGUGGGUUUAAGAAUGAGAAGGGCGAUGAA [EX5 #8] (Eterna round: R97, puzzle: Exclusion 5)
apparent KD of MS2 coat protein (input ligand: FMN 200 uM): 446 nM
apparent KD of MS2 coat protein (input ligand: none): 717 nM

UUUGAUUGCACAGGAUAUUGUCAUUUGAGUUGUCAAGAAGGGUGUACAUGAGGAUCACCCAUGUUAUGCUUUCCUCGCUCACUU [JR_ExcNG1_Sub009] (Eterna round: R96, puzzle: Exclusion NG 1)
apparent KD of MS2 coat protein (input ligand: FMN 200 uM): 15.5 nM
apparent KD of MS2 coat protein [2]: 12.8 nM
apparent KD of MS2 coat protein (input ligand: none): 20 nM

AACAGUCUGGAGGAUAUGCUGGAUUAAUAUCUGGCAGAAGGCUGGACAUGAGGAUCACCCAUGUAAAUACUACC [Omei Ex6 A2] (Eterna round: R97, puzzle: Exclusion 6)
apparent KD of MS2 coat protein (input ligand: FMN 200 uM): 55.2 nM
apparent KD of MS2 coat protein (input ligand: none): 21.5 nM

UUUAUAUAUGAAGGAUAUACUUAACAUGAGGAUCACCCAUGUGGUGUUGUGAGUGAGUGAGUUUAGUAGAAGGUCAAGUAUUUU [JMF's solution 49] (Eterna round: R96, puzzle: Exclusion NG 2)
apparent KD of MS2 coat protein (input ligand: FMN 200 uM): 719 nM
apparent KD of MS2 coat protein [2]: 177 nM
apparent KD of MS2 coat protein (input ligand: none): 198 nM

ACACAGCGAGGAUAUACAUGAGGAUCACCCAUGUGGCGGCCGUUACGGUAGGACUAGUGUAGAAGGCGCAUUGG [EX3 #34] (Eterna round: R97, puzzle: Exclusion 3)
apparent KD of MS2 coat protein (input ligand: FMN 200 uM): 203 nM
apparent KD of MS2 coat protein (input ligand: none): 247 nM

CAGUACUGAGGAUAUACAUGAGGAUCACCCAUGUGUUCCAGCUAGGGAACUAGCAAAAGUAGAAGGCAGUACUG [salish99_ex3_r3_075] (puzzle: Exclusion 3)
apparent KD of MS2 coat protein [1]: 23.1 nM

UUGUUAUAUGAAGGAUAUACUUAACAUGAGGAUCACCCAUGUGGUGUUGUGAGUGAGUGAGUUUAGUAGAAGGUCAAUUCUUUU [JMF's solution 94] (Eterna round: R96, puzzle: Exclusion NG 2)
apparent KD of MS2 coat protein (input ligand: FMN 200 uM): 735 nM
apparent KD of MS2 coat protein [2]: 440 nM
apparent KD of MS2 coat protein (input ligand: none): 421 nM
